3 substances from publication PMC13489962, “Small-molecule modulation of β-arrestins” (Nature, 2026) can be followed below.

For test [1], the system named is Gi-mediated inhibition of adenylyl cyclase (D2R, M2R). Nature of the test: GloSensor cAMP Gi activity assay at D2R or M2R. The test is classed as cell-based. The note with it: modulators 50 μM, 15 min; PTX 100 ng/mL overnight; forskolin 2 μM. On the procedure:
Gi-mediated inhibition of adenylyl cyclase was assessed using the GloSensor cAMP bioluminescence biosensor (Promega). HEK293 cells were transiently transfected with D2R or M2R together with the GloSensor cAMP reporter construct, using FuGENE 6 per the manufacturer’s protocol. Cells were seeded into poly-D-lysine-coated white clear-bottom 96-well plates at 60,000 cells per well and cultured for 24 h. GloSensor reagent was added per the manufacturer’s instructions and cells were equilibrated for 1 h at room temperature. Where indicated, pertussis toxin (PTX; 100 ng ml^−1) was applied overnight as a positive control for Gi blockade. Compounds (Cmpd-5, Cmpd-46 or Cmpd-64; 50 μM) or vehicle (DMSO) in HBSS supplemented with 20 mM HEPES (pH 7.4) and 0.05% BSA were applied for 15 min at room temperature. Cells were stimulated with forskolin (2 μM, 5 min), followed by concentration-response stimulation with quinpirole (D2R) or acetylcholine (M2R). Luminescence was recorded every 5 min over 30 min using a CLARIOstar microplate reader (BMG Labtech). Forskolin-stimulated cAMP, quantified at 10 min after agonist addition, was normalized to the maximal forskolin response per condition. Gi activity was derived from the inhibitory plateau and expressed as a percentage of the DMSO plus agonist control.

The target in test [2] is phosphorylated β2V2R (pβ2V2R): N-terminal Flag-tagged T4 lysozyme fusion-β2V2R (β2AR residues 1–341 fused to V2R residues 328–372) (UniProt P07550).
Test [3] addresses β2V2R fused to the ProLink tag (inactive portion of β-galactosidase), in U2OS PathHunter cells. Nature of the test: split reporter (BiFC, NanoBiT); PathHunter β-galactosidase enzyme fragment complementation in U2OS cells co-expressing βARR2 (enzyme acceptor) and β2V2R (ProLink); modulators or vehicle 30 min, then isoproterenol 60 min at 37 °C.

βARR2 fused to the enzyme acceptor (EA) portion of β-galactosidase, in U2OS PathHunter cells, sequence (P32121 whole entry, the tested form may be a part): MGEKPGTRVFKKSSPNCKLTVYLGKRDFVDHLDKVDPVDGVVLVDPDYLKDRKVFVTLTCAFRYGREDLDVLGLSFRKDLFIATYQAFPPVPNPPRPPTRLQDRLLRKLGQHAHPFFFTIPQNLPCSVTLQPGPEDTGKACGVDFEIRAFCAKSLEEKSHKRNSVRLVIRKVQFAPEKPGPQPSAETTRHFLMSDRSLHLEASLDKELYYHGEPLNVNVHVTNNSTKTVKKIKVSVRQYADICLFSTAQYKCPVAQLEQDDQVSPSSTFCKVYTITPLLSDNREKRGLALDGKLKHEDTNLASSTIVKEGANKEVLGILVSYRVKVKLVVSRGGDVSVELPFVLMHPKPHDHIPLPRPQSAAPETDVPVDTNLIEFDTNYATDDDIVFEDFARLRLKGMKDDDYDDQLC
β-arrestin2 (βARR2), rat, C terminus truncated at amino acid 394, sequence (P29067 1-394): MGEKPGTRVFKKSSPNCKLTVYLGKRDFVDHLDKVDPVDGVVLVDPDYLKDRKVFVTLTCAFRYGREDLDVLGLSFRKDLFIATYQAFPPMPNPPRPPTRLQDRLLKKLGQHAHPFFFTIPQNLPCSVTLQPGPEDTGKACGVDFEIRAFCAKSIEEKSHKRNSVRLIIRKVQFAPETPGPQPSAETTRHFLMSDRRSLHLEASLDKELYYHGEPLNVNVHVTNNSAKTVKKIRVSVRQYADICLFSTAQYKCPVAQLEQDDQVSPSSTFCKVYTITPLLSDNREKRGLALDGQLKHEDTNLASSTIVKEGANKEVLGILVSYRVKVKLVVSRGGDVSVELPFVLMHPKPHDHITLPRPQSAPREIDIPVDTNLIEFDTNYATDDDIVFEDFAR

For pertussis toxin, in test [1], the “effect on agonist-induced, Gi-mediated cAMP reduction at D2R or M2R” value is listed as “abolished this response entirely”.

“β-arrestin2 (βARR2), rat, C terminus truncated at amino acid 394 (from UniProt P29067 1-394) (domain or fragment)” displayed a reduction of β-arrestin-mediated high-affinity [^3H]-Fen binding to pβ2V2R by Cmpd-5, Cmpd-46 and Cmpd-64, each (100 μM) in test [2] of 40%.

In the case of “βARR2 fused to the enzyme acceptor (EA) portion of β-galactosidase, in U2OS PathHunter cells (from UniProt P32121 1-409) (natural protein)”, in test [3], the reduction of Emax of Iso-induced recruitment with 50 μM Cmpd-46 worked out at 77.3% and the reduction of Emax of Iso-induced recruitment with 50 μM Cmpd-64 worked out at 74.4%.
